{"source": "paper PMC3477312", "about": "“Characterization of Vibrio cholerae Hfq Provides Novel Insights into the Role of the Hfq C-Terminal Region” (Journal of Molecular Biology, 2012)", "key": {"[1]": {"target": "VcNTDEcCTR (Vibrio cholerae | Escherichia coli) (UniProt Q9KV11)", "test": "SDS-PAGE stability assay; 1 ug protein in loading buffer with 1% SDS heated at 95 °C for 0 to 300 s, 10% SDS-PAGE, hexamer and monomer bands quantified; hexamer to monomers"}, "[2]": {"target": "the molecule itself", "test": "SDS-PAGE stability assay; 1 ug protein in loading buffer with 1% SDS heated at 95 °C for 0 to 300 s, 10% SDS-PAGE, hexamer and monomer bands quantified; hexamer to monomers"}, "SEC": {"target": "the molecule itself", "test": "SEC"}}, "data": [{"molecule": "VcNTDEcCTR (from UniProt Q9KV11 1-72; P0A6X3 73-102)", "values": [{"measurement": "half-life of hexamer in 1% SDS at 95 °C", "setting": "[1]", "result": 39.2, "unit": "s"}]}, {"molecule": "VcHfq72 (domain or fragment, also called VcHfq NTD; NTD alone of VcHfq) MAKGQSLQDPFLNALRRERIPVSIYLVNGIKLQGQIESFDQFVILLKNTVNQMVYKHAISTVVPARPVSHHS", "values": [{"measurement": "half-life of hexamer in 1% SDS at 95 °C", "setting": "[2]", "result": "32.1 ± 1.9", "unit": "s"}]}, {"molecule": "Vibrio cholerae Hfq (natural protein, also called VcHfq; full-length VcHfq) MAKGQSLQDPFLNALRRERIPVSIYLVNGIKLQGQIESFDQFVILLKNTVNQMVYKHAISTVVPARPVSHHSGDRPASDRPAEKSEE", "values": [{"measurement": "stoichiometry N", "setting": "SEC", "result": 6}, {"measurement": "half-life of hexamer in 1% SDS at 95 °C", "setting": "[2]", "result": "33.2 ± 1.3", "unit": "s"}]}]}
